Reference: patent US20190367903, “OLIGONUCLEOTIDE PROBES AND USES THEREOF” (CARIS SCIENCE, INC., published 2019)

Target: T1, EpCAM (UniProt P16422 P16422:24-265)
T1 sequence: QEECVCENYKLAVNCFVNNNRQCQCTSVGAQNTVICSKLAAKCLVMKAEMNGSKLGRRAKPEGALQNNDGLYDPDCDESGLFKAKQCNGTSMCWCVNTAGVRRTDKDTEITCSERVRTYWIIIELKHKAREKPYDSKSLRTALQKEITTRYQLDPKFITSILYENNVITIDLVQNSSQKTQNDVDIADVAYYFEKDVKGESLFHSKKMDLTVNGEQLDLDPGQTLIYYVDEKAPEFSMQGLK
Test: stated identified by library screening to recognize EpCAM, no data shown

B1: CAR003 (ssRNA)
RNA: AUCCAGAGUGACGCAGCAGUCUUUUCUGAUGGACACGUGGUGGUCUAGUAUCACUAAGCCACCGUGUCCA
binding result: binds
